Test results taken from CN111253486A (ZAI LAB SHANGHAI CO LTD, dated 2020).
Blank lines part the entries; values can stand above or below the binder they belong to.

Target: T1, human PD-1-his (recombinant human PD-1 extracellular domain with C-terminal polyhistidine tag) (human, UniProt Q15116 25-170)
T1 construct: extracellular domain; also called 人PD-1-his; hPD-1蛋白
Experiment: SPR (Biacore 8K), antibody captured, antigen injected

T1 sequence (Q15116 25-170): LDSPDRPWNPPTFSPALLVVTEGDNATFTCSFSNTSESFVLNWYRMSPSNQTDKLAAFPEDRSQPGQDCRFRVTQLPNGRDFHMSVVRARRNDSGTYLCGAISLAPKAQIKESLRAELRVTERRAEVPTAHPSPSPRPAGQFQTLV

Kd: 2.43 nM
koff: 0.000295 s⁻¹
kon: 122000 M⁻¹ s⁻¹
B1: murine anti-PD-1 antibody 56B3C11 (antibody, V domains shown)
VH: EVMLVESGGGLVQPGGSLKLSCAASGFTFNSYTMSWVRQTPEKRLEWVAYISFGGGDTYYPDTVKGRFTISRDNAKNTLYLQMNSLKSEDTAMYYCARQGNYEGAPFAYWGQGTLVTVSA
VL: DIQMTQTTSSLSASLGDRVTISCRASQDISNFLNWYQLKPDGTIKLLIYYTSRLHSGVPSRFSGSGSGTDYSLTITDLEQEDIATYLCQQGDMIPWTFGGGTKLEIK

Kd: 1.16 nM
koff: 0.000198 s⁻¹
kon: 171000 M⁻¹ s⁻¹
B2: murine anti-PD-1 antibody 31G1E10 (antibody, V domains shown)
VH: EVKLVESGGGLVKPGGSLKLSCAASGFTFSSYGMSWVRQTPEKRLEWVATISGGGRDTYYPDSVKGRFTISRDNAKNNLYLQMNNLRSEDTALYYCARQRDSAWFAHWGQGTRVTVSA
VL: not shown
